Reference: paper PMC9396398, “Crystal structure of Ankyrin-G in complex with a fragment of Neurofascin reveals binding mechanisms required for integrity of the axon initial segment” (The Journal of Biological Chemistry, 2022)

Experiments:
Test in all cases: ITC
AnkG R1-24 V282Q = molecular target: T1, AnkG R1-24 V282Q (Rattus norvegicus)
T1 chain: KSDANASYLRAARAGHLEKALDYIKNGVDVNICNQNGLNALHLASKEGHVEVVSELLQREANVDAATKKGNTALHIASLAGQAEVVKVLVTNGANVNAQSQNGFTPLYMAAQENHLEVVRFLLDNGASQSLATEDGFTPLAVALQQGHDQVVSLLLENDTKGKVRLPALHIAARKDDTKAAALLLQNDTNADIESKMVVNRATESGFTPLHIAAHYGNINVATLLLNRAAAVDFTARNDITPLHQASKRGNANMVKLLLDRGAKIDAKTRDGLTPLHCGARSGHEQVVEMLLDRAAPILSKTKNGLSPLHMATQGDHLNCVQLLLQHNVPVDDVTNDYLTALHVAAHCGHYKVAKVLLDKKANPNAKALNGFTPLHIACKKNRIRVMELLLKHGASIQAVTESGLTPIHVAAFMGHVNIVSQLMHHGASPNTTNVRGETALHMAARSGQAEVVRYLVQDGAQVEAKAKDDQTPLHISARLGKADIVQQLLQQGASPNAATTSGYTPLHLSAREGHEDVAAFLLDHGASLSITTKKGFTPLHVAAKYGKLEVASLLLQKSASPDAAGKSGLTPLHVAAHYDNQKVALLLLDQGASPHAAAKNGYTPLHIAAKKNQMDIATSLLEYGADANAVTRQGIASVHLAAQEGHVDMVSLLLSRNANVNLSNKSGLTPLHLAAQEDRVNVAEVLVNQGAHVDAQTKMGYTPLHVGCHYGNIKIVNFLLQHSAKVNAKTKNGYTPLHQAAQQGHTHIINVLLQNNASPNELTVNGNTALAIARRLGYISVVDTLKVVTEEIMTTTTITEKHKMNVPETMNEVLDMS

AnkG R1-24 T339A, N341A = molecular target: T2, AnkG R1-24 T339A, N341A (Rattus norvegicus)
T2 chain: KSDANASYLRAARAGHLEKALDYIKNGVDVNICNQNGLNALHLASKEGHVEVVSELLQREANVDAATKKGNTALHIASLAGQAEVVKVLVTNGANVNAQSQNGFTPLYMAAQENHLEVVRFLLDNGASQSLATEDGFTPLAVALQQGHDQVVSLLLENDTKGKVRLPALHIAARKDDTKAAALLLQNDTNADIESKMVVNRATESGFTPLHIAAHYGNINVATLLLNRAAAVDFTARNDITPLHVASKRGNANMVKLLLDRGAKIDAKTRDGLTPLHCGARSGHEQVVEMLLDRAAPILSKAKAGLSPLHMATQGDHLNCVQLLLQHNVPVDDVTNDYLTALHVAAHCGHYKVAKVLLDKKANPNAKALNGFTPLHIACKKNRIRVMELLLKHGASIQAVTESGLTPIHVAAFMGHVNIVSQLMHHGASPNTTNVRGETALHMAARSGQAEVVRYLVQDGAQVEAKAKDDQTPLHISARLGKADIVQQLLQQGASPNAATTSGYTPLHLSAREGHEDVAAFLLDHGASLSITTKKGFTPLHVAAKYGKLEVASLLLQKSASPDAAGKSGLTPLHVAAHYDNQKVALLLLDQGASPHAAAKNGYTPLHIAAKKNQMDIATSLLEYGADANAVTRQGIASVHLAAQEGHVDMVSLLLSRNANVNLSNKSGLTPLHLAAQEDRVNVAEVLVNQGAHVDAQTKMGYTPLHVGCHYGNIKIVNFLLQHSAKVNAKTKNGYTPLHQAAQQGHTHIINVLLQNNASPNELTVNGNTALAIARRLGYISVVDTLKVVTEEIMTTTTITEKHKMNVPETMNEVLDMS

AnkG R1-24 M348Q = molecular target: T3, AnkG R1-24 M348Q (Rattus norvegicus)
T3 chain: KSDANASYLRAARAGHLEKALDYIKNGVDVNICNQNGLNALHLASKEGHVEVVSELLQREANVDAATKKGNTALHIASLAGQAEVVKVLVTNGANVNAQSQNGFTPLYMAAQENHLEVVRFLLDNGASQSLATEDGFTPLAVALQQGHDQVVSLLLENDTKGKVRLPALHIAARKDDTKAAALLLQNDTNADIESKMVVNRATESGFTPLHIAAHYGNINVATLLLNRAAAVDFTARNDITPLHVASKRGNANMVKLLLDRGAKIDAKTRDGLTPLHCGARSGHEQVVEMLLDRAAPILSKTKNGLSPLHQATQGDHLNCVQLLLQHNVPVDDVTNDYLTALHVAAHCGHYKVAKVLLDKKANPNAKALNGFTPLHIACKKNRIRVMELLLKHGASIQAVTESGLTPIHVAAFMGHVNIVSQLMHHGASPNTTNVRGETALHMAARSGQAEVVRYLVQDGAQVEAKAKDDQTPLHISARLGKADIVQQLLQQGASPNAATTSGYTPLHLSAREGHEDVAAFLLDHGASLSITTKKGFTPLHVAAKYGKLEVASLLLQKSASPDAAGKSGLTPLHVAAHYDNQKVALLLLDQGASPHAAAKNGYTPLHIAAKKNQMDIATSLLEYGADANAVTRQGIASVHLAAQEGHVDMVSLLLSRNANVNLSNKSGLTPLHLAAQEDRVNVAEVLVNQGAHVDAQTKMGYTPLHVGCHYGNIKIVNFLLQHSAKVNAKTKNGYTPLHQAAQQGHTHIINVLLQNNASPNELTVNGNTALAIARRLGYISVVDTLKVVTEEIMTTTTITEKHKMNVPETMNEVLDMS

Kd (AnkG R1-24 V282Q): 1300 nM
Kd (AnkG R1-24 T339A, N341A): 2500 nM
Kd (AnkG R1-24 M348Q): 1800 nM
B1: Nfasc ankyrin-binding domain (ABD, residues 1187-1214) (domain or fragment, UniProt P97685 1187-1214, looked up)
chain: SDDSLVDYGEGGEGQFNEDGSFIGQYTV
notes: also called Nfasc ABD; source: E. coli BL21 (DE3), purified (Ni-NTA, size-exclusion chromatography)
